{"source": "the DeepSol protein solubility set", "experiment": "soluble on expression in E. coli; label from the status in PepcDB or PDB records"}
{"sequence": "MKPNPPINELVLLQAHQLAERIRLRQVSCREVMQAYLAHIERFNPRVNALVSLLPAERLLEEADARDGELARGEWRGWMHGLPHAIKDLSLTRGIRTTLGSPLYRDYIPERDGIMVERIRAAGAILIGKTNTPEFGLGSQTYNPLFGATACAYDERLSAGGSSGGAAAALALHLVPVADGSDMMGSLRNPAAFNNVIGFRPSQGRVPFDDSADLFFDQLGYEGPMGRSVRDTALLLSVQAGADRRAPLSIAEPGARFAAPLERDFEGTRLGWLGDLDGYLPMQDGILQMCQRALGDFRSLGCEIEEANLGFAPERLWECWRTLRHWLVAGSLGGVHADPAKRALLKPEALWEVENGLRLGADAVFRASVIRSDWYRAIGRLFERYDYLLLPSAQVFPFAKETPWPRSIEGVAMDTYHRWMEVVVPGSLSGCPVANVQAGFNAEGLPMGLQIIGPHQADFAVLQLAHAYERASRWFERQPSPLLAN", "values": [{"measurement": "soluble on expression in E. coli", "value": "not soluble"}]}
{"sequence": "MTKRLFLPEWAPQEAVQLTWPHDRTDWAYMLDEVETCFVRIATAILRHERLIVVCPDRKRVFGLLPPELHHRLYCFELPSNDTWARDHGGISLLADGRPMIADFAFNGWGMKFAAHHDNLITRRLHALGLFAEGVTLDNRLAFVLEGGALETDGEGTLLTTDSCLFEPNRNAGLSRTAIIDTLKESLGVSRVLSLRHGALAGDDTDGHIDTLARFVDTRTIVYVRSEDPSDEHYSDLTAMEQELKELRRPDGQPYRLVPLPMAEALYDGADRLPATYANFLIINGAVLVPTYDSHLDAVALSVMQGLFPDREVIGIDCRPLVKQHGSLHCVTMQYPQGFIRLEHHHHHH", "values": [{"measurement": "soluble on expression in E. coli", "value": "soluble"}]}
{"sequence": "MNPALESLLADADLCVKCGLCSPHCPTYRQTADENESPRGRIALIQGWATGRLSLTAALRGPLDDCLLCRNCEAVCPAKVPYSRLVDRFRAETGQRRKPLEHHHHHH", "values": [{"measurement": "soluble on expression in E. coli", "value": "not soluble"}]}
{"sequence": "MGSDKIHHHHHHMALLEVTDLSQSFADRKLYDDANFTLERADHMGIVGQNGAGKSTLIKILTGQILPLSGQIKWQRNVRTGYLDQYADIPAGMTLYAFLKTAFQRLYDLDAQMQQLYADYAEKMDDQLLERAGRIQETLEANNFYDVETEMERVITGLGLDEIGRDHVISEMSGGQRSKIILAKLLLENPDVIILDEPTNYLDTAHISWLEDYLNGFEGAVMVISHDYDFLQQVTNCICDVAFGKIIKYRGDFKAAMRQKEARKEAQLKAFEKQQVVIEKAEKFIRKNKAGSKSTMAKSREKMLSHLDRVDPPSENEHAKFAFPYLDTGSQNALSVTKLSVGYGKPLLEPVTFTMTNGEKLAFKGFNGVGKSTLIKSILGVIPALSGKSDFSPSAKINYFNQDLEWDNPQLTPLQTIQNEYPTMLPKTIRTKLAKCGINAANAMKPMHLLSGGEQTKVKLALLELVPSNFLIMDEPTNHLDDETKEGLKRALQAFQGNLILVSHESSFVNGWVDKELNVEKLSLKERQG", "values": [{"measurement": "soluble on expression in E. coli", "value": "not soluble"}]}
{"sequence": "MELADVGAAASSQGVHDQVLPTPNASSRVIVHVDLDCFYAQVEMISNPELKDKPLGVQQKYLVVTCNYEARKLGVKKLMNVRDAKEKCPQLVLVNGEDLTRYREMSYKVTELLEEFSPVVERLGFDENFVDLTEMVEKRLQQLQSDELSAVTVSGHVYNNQSINLLDVLHIRLLVGSQIAAEMREAMYNQLGLTGCAGVASNKLLAKLVSGVFKPNQQTVLLPESCQHLIHSLNHIKEIPGIGYKTAKCLEALGINSVRDLQTFSPKILEKELGISVAQRIQKLSFGEDNSPVILSGPPQSFSEEDSFKKCSSEVEAKNKIEELLASLLNRVCQDGRKPHTVRLIIRRYSSEKHYGRESRQCPIPSHVIQKLGTGNYDVMTPMVDILMKLFRNMVNVKMPFHLTLLSVCFCNLKALNTAK", "values": [{"measurement": "soluble on expression in E. coli", "value": "soluble"}]}
{"sequence": "MLERIANIQKKLSKSIVERKINEVRKVAAVDVSYKEEKARAALVITTFPEGEVLKTKVIETTVSFPYIPTFFFLRETKPILIATKGETFDVLIVEGHGKAHPRGYGLASHIGVVLRKPTIGVAKRLLKNTPKDTYKKVGKVYVSVGNLITLEDATKIIRAILDESGYPKPLKLADKLSKGRIYEVKNTPSPNRSRKKRGNRGKDNNNSQGNLEHHHHHH", "values": [{"measurement": "soluble on expression in E. coli", "value": "soluble"}]}
{"sequence": "MSDPKPTRSQGDLAEMLEMLLDKGVVINADIAVSVGDTELLGIQLRAAVASFETAAQYGLEFPTGTDMKRVETAAGVSSDASDANSETQPETEPARETTDEHSAVSSPSSREE", "values": [{"measurement": "soluble on expression in E. coli", "value": "not soluble"}]}
{"sequence": "LSWKRCAGCGGKIADRFLLYAMDSYWHSRCLKCSSCQAQLGDIGTSSYTKSGMILCRNDYIRLFGNSGACSACGQSIPASELVMRAQGNVYHLKCFTCSTCRNRLVPGDRFHYINGSLFCEHDRPTALINGHLNSGGSGGSGGSGGDVMVVGEPTLMGGEFGDEDERLITRLENTQFDAANGIDDETRESGSIEF", "values": [{"measurement": "soluble on expression in E. coli", "value": "soluble"}]}
{"sequence": "GHMYQHHNWQGALLDYPVSKVVCVGSNYAKHIKEMGSAVPEEPVLFIKPETALCDLRQPLAIPSDFGSVHHEVELAVLIGATLRQATEEHVRKAIAGYGVALDLTLRDVQGKMKKAGQPWEKAKAFDNSCPLSGFIPAAEFTGDPQNTTLSLSVNGEQRQQGTTADMIHKIVPLIAYMSKFFTLKAGDVVLTGTPDGVGPLQSGDELTVTFDGHSLTTRVLGS", "values": [{"measurement": "soluble on expression in E. coli", "value": "soluble"}]}
{"sequence": "MTGVVTASKGLNVRKEANTSSQIIGILNSGESVEIIGEENGFYKITYKGQEAYASKNYINIFDGNSLEHHHHHH", "values": [{"measurement": "soluble on expression in E. coli", "value": "not soluble"}]}
{"sequence": "MTISRRSLLEGLLGAAAGLALLPVLGGRAGAALPREAEVVVVGAGAAGIAAARRIVAAGRKVIVVEAASEIGGRCVTDTTSFAAPFDRGARWLHNPDSNPLVRLARSSGFAVTPVAPGQKVRIGRRNARSRETEDFLAAFVRASRAISDASRGKSDISCAAALPNDLGDWAATIEYVLGPATTSKDLRALSAMDAVRTLDRTALLGCPQGVGSLLTQLASSLPIALSTPVKRIVWSGRDLAVETTAGRIGARAIIVTASTNVLTSGNLGFSPELPKRQLDAAARLSLGSIDRIALQFKGNPLGLSRDETIIERADDIRTATLVGNIGGTSLCTVDVAGSFGRQLAAQGEAAMQDFAIEWLGKLFGSDIAGAVERKAVTRWNEMPYVLGAMSAAEPGGQPSRKVLGEPLGNLFFAGEATHETLFGTVQGAWESGERAADAALKKIGAVKEPAPEKPVRKQKPRREPQRQREQRPPATASGTPSWWRLEHHHHHH", "values": [{"measurement": "soluble on expression in E. coli", "value": "not soluble"}]}
{"sequence": "MATKKTFTDETYFKLSEAVYQDGTLNSKKINIELSDRTKSNWKVVSKLNDRATNTQAFAVIPEEKGKDGKIYYNHNNMIFVYRGTKESKDFGSDIINVFAGRNSRTSLDRKSKNPFQVSKEWTEEVLKEFNPKNPTSTGHSLGGALSHYNSILYDFNATTYAAPNIYQLLPEDKQKKVRDGFYNNSIIDFTHDDDMIGTFDQFSSPIIGSQYIAERNNVKVGAKGLFGAIPGHYNETFEGCFSSDGTMKLKVDVDSIIKHAQDIDDIIQSLQTNNADLENLEEKLQIGSKKIQNQLEEEIRIGGAYSELTTWDIDDVLTELCTKYKNGVYCFYNPNEFEKYYEMNHQTRRLLKNFQIELIDAAQSFRETDTRLGKWISNNN", "values": [{"measurement": "soluble on expression in E. coli", "value": "not soluble"}]}
{"sequence": "MNLGFRVTGKFVRELLDVLDEIAEEIRQEEKEKYPYTEWERKREVVKERLRKLPEYVREAISVITVQKRVGRPKKVDLEKRVMLFLFARLMDKSNRDIEELLELFEPLFGIKVSYKTIERLYSDEEVRMALHNLFILLLREEGVSGDFSGDGTGYSLTITKHYRSNPKRKGKDFRYVFRIIDIDTGMYVGFGYSDRSEKDAFEKALGMLKSMGVKVNSISLDKYYSSRKTLRLFDAETAVYVIPKRNLARIGFDWLRVIERIVEAPYRFLKRYFKRNLSEAGFSADKRRFGWLIRQRREDRREMALFAVGLWHNVFAVRVVR", "values": [{"measurement": "soluble on expression in E. coli", "value": "not soluble"}]}
{"sequence": "MKSIYITGYMGAGKTTIGKALSKELHMDVVDTDQKIEEKQGKVIRDIFAEEGEMAFREYESEMLCSLPVDNVIITTGGGIVEREENRKWMKENGTVVYLYCDPHVIAERLREDTTRPLFQKKDIDAFVTKFESRRAYYEEAHIHIDTTNKSVKQIMNELKEKINE", "values": [{"measurement": "soluble on expression in E. coli", "value": "not soluble"}]}
{"sequence": "MATGNRNPENFTSLSPIVKAPITDTLSVPLSQQGRICGFFESQFYRCMEAYGAKMGRKYCDLEHRDFQECVTGDKQKKRADAIREQRCKLFLDGKIAKPYVDNHPEPGQFKTDHFQWNRIN", "values": [{"measurement": "soluble on expression in E. coli", "value": "not soluble"}]}
{"sequence": "MSLQLLAPGANTALANAHCSWNLESGTSSVFGEYAAVALLAVNEKRQPMGDPALLHQEQSWMEWSGGPQDVGCTLKLDRLPAGSDRVLLMVYVYAAMGPIRDFASLRLKVDANIEHRLDLRDNGEAAIIIGEFYKRNDQWKFRALSEGSAYGLSAFGRKIGLEVDDRHPRRPSGGSGGPAGGPRHESATGTAFVVGPAHVMTCAHVIEDMGVFYINSLEGRYKAEAVVIDRRNDIALLRVQGAPPLSAVTFREGQGCEPGDTVAVLGYPLASISGGGLQVTQGGISGLFGLHNDASLFQFTAPIQPGSSGSPLFDNGGAVIGMVTSTVPDGQNMNFAVKSALLMSFLQACRIDAPHARAERSYTTTEISRTFQSSLWLVEASREGHHHHHH", "values": [{"measurement": "soluble on expression in E. coli", "value": "soluble"}]}
{"sequence": "MGSDKIHHHHHHMIISVINLKGGSGKTTTAMALATAAARHNRNVSVLDTDPQGDATTWAGDAEDAGETLPFTVDSANIGKLKRLRKTMADDELVIIDCPPAGNVVDVACDVSDFVIVPATQGPFELSHALETAESLDAAGKPYALLLLKVENNKLAGNAVNLIRERGASVFDASVPKRVGMQKVIGHAFPSNLNGYEDVYSELEEVIA", "values": [{"measurement": "soluble on expression in E. coli", "value": "not soluble"}]}
{"sequence": "MLFERIYEEGLAQASYFIGCQREGKAIVVDARRDIQTYLDLAAKNNMVISAVTETHIHADYLSGTRELAAATGAEIFLSGEGGADWQYGFTGTTLMHNSTIKLGNITITAKHTPGHTPEHLSFLITDGAVSKDPGFMLSGDFVFVGDVGRPDLLDEAAGGVDTRFAGAQQLFHSLKEQFLALPDHIQVYPGHGAGSPCGKALGAIPSTTVGYEKANAWWAPYLRSDDEAGFVEELLDGQPDAHAYFARMKKQNKQGPAVLSTLSPLVKLEAEEVVEKLGSEAVFVDTREQNQVHLGTVVGALNIPRGAKASNFAAWVIDPQKDAQDLIVLAPDANTAADFRDALLRVGIDTVRYFTNSIDGLPTFVPELISPAELAETNYDALIDIRAKSEFAAGSIPGAQQLSGGSAMWRLNELPAGGTLVTFCQSGARNTVVANALRRAGFTVIELEGSYAAWEKSAANPLEHHHHHH", "values": [{"measurement": "soluble on expression in E. coli", "value": "soluble"}]}
{"sequence": "MAIVKKKKVSAASKAATEKPEVKKAVKRPVAETEAVTPKKKKLVKKVKKSAKKAHEEEPIEQVEKLQLIDDDEDGLEGLSFPGSDDEDLRDDYSDDDSDAGDHLPIEKKSAALDKQKEKIIAEGEEELQLNIANQATFELPTVEEIENEMKSVPNLEIVKQRIADVIQVLGDFKNRRDPQKSRENYVEVLKKDLCSQYGYNDYLMGKFMDLFPNGAELLEFLEANDNPRPVTIRANSLKVKRRDLAKNLINRGMNVDPAADWTKVGLVVYDSQVPVGATPEYLAGHYMIQGLNSLLPVMALAPQPGDRVLDMCSAPGGKTSHIAALMKNSGVLFANDANFTRCRAIIGNLHRLGVNNTVVCNLGGEEFSKIRPNGFDRILLDAPCSGTGVIWKDQSVKTSKDSQDVQRRHTMQRQLILSALDSLDANSPNGGYLVYSTCSVLVEENEAVVNFLLERRHCELVPTGLSIGVDGYTRFRDYRFHPSLSMTKRYYPHVHNIDGFYVAKIKKLSNAKMSKQGVMEKEKEKAAQKSQNKKNKAEAEASESSDDEEEKKNGVEVNGQKKPAKKQQQKKQKADGDDSDDDNNAPMKNIGSGARANKKRRNQKKAAEKQAAVKEDDGFNTVGNVKRAKKPTQFKSKVPKRAAARTGAKSVKNRRKKMLAKQQ", "values": [{"measurement": "soluble on expression in E. coli", "value": "not soluble"}]}
{"sequence": "MGSDKIHHHHHHMFHREDFSKALLKKALQPGMRVMDIGCGSGELTRLAADIVGKEGDVVGIDINEQLLWQARHDNGYANVSYQNADLAALSSFETKSFDAIIGRRVLMYQKDPKKVIESLTPLLKPNGFYVFQESDAMCLELAKPSFVNMNKIQSLIWQTVEKEGGHIHIGSQLEQLMLEAGLIVDHFVSENVIQTSQTGTDLSWLLNIMKERIQKYSDLQGLEDVNLQKELEENNDHFIRDCQFGIISHRVDE", "values": [{"measurement": "soluble on expression in E. coli", "value": "not soluble"}]}
